Paper doi:10.1101/059451

Molecular target: CFF-Myc (UniProt P01732)
Experiment: co-IP

- fold more TNPO1 co-IPed in the presence of Rab8-T22N than -Q67L or -wt: 3 fold
Substance: HA-TNPO1 (from UniProt Q92973 1-898) (natural protein)
